Tests used:
[1] = test system: HEK293 cells; format: in vitro ADME; settings: 10 μM
Method: (§1) The peptide encoding FixR-cpp was chemically synthesized by Genscript (98% purity) to contain the cell permeating viral TAT sequence in the amino-terminus: […] (SEQ ID NO. 2). The amino terminus of the peptide contained a FITC fluorophore to visualize cell uptake. The peptide was resuspended in DMSO. Flow cytometric assays were performed to quantify FixR cellular uptake in both HEK293 cells and freshly dissociated aMVM. HEK293 cells were cultured in 12 well plates and incubated with different concentrations of FixR-cpp for 2 hours and stained for cell death detection using LIVE/DEAD™ Fixable Far Red Dead Cell Stain Kit (ThermoFisher Scientific, L10120). Similarly, non-TG and IQ/AA^tg freshly dissociated aMVM were incubated with various concentrations of FixR-cpp for 2 hours in Tyrode's solution (138 mM NaCl, 4 mM KCl, 1 mM MgCl2, 10 mM HEPES (pH 7.4 using NaOH), 0.2 mM NaHPO4 5 mM D-glucose, 1 mM CaCl2). For cellular uptake measurements, we utilized an LSR II (BD Biosciences) flow cytometer equipped with 405 nm, 488 nm, and 633 nm lasers for excitation and 18 different emission channels. Forward and side scatter signals were detected and used to gate for single and healthy cells. […] Histograms from the Fluorescein 5(6)-isothiocyanate (FITC) and Allophycocyanin (APC) channels for the single-cell population were obtained and analyzed using FlowJo (version X, FlowJo LLC).

[2] = test system: freshly dissociated aMVM; format: in vitro ADME, mouse
Method: as §1

How did the “cells showing increased fluorescence compared to background” value ([1]; 2 hours of incubation, FITC-tagged) turn out when “FixR-cpp: FixR fused to HIV-1 TAT transduction domain, YGRKKRRQRRRAAAIASSLIRQKRQARESNSERVSASKRRSSPSKG (SEQ ID NO: 2)” was run?
The value was roughly 90%.

What about the “enhancement in fluorescence intensity” value ([1]; 2 hours, flow-cytometry) of the same substance?
Its value is roughly 100 fold.

And the “enhancement in fluorescence intensity” value ([2]; 10 μM, 2 hours, flow-cytometer)?
Its value is roughly 150 fold.

And the “uptake into freshly dissociated cardiomyocytes” value ([2]; epifluorescence imaging)?
Its value is “robust uptake”.

Source: patent US20250049953A1, “TREATMENT AND METHOD FOR INHIBITING LATE NA CURRENT” (THE TRUSTEES OF COLUMBIA UNIVERSITY IN THE CITY OF NEW YORK, priority 2022, published 2025)
